*1 amine or outer side, *2 acyl side, *3 side chain or, on linkers, in order; H or OH if unused. Where a SMILES comes first, the peptide text is derived from it. Bridges are numbered along the chain shown (N, C = ends). Where no end group is shown, it is not given here. sulfonated dichloro‑BODIPY dye = Sulfonated dichloro-BODIPY dye that cyclises the two flanking Cys through two SNAr reactions; sulfonated dichloro‑BODIPY = sulfonated dichloro-BODIPY dye attached to the two flanking Cys by SNAr reactions; X1 = COc1ccc(C2=C3C=C(S(=O)(=O)O)C([*:2])=[N+]3[B-](F)(F)n3c2cc(S(=O)(=O)O)c3[*:1])cc1
Assays:
[1] = molecular target: TrkA-expressing cells (HeLa+A) (UniProt P04629); experiment: Cell survival assay in serum-free media, TrkA-expressing cells (HeLa+A); assay type: cell-based; settings: Figure 8 summary
Experimental: Cells were seeded at a density of 2 × 10^3 cells/well in complete media in 96-well plates and incubated for 24 h to allow cells to adhere. Cells were washed with DPBS, and then, media were swapped for serum-free media of the same type as the complete media. […] Cells were suspended and live cells counted using flow cytometry (CytoFLEX LX).

[2] = molecular target: TrkB-expressing cells (HEK+B) (UniProt Q16620); experiment: Cell survival assay in serum-free media, TrkB-expressing cells (HEK+B); assay type: cell-based; settings: Figure 8 summary
Experimental: Loop mimics 5 were screened in cell survival assays to evaluate their efficacy in stimulating Trk receptors (Figure 2). Mimics were assayed for the ability to rescue cells from cell death when incubated in serum-free media (SFM) in the absence of NTs (a test for “agonism”) or in the presence of a suboptimal NT concentration (a test for NT “modulation”). Simultaneously, these assays may confirm test mimics are not cytotoxic at lower doses (though cytotoxicity assays were also performed up to higher doses, Figure S1). […] All the test compounds were screened at 50 μM concentrations initially, and then, dose response curves were measured for the hits (Table 1 and Figure 3).
We were forced to use transfectants in different cell lines (HeLa, HEK-293, NIH-3T3 expressing TrkA, B, and C, respectively) due to difficulties in obtaining transfected cells derived from a single wild type; however, none of the cells used express TrkA-C prior to transfection. Throughout this paper, HeLa cells are denoted as “HeLa”, and their TrkA transfectants are “HeLa+A”. Similarly, HEK-293 cells are “HEK”; their TrkB transfectants are HEK+B. NIH-3T3 cells are “NIH”, and their TrkC transfectants are “NIH+C”.
Cells were seeded at a density of 2 × 10^3 cells/well in complete media in 96-well plates and incubated for 24 h to allow cells to adhere. Cells were washed with DPBS, and then, media were swapped for serum-free media of the same type as the complete media. Cells were then treated with 50 μM compound either alone or in conjunction with suboptimal neurotrophin corresponding to the Trk receptor expressed for 48 h. Cells were washed with DPBS buffer twice and detached from the plate with 50 μL of trypsin for 3 min at 37 °C. Trypsinization was quenched with 100 μL of complete media. Cells were suspended and live cells counted using flow cytometry (CytoFLEX LX). Cell survival was normalized from cell count (CC) readings relative to optimal neurotrophin (NT = 100%) and DMSO (0%) utilizing GraphPad Prism 10.2, followed by statistical analysis via one-way ANOVA and Dunnett’s t test compared to the DMSO control. Dose response versions of this assay were conducted following the same procedure, but the data was analyzed in GraphPad Prism 10.2 using the nonlinear fit: {agonist} vs response – variable slope (four parameters) function.

[3] = molecular target: TrkC-expressing cells (NIH+C) (UniProt Q16288); experiment: Cell survival assay in serum-free media, TrkC-expressing cells (NIH+C); assay type: cell-based; settings: Figure 8 summary
Experimental: Loop mimics 5 were screened in cell survival assays to evaluate their efficacy in stimulating Trk receptors (Figure 2). Mimics were assayed for the ability to rescue cells from cell death when incubated in serum-free media (SFM) in the absence of NTs (a test for “agonism”) or in the presence of a suboptimal NT concentration (a test for NT “modulation”). Simultaneously, these assays may confirm test mimics are not cytotoxic at lower doses (though cytotoxicity assays were also performed up to higher doses, Figure S1). […] All the test compounds were screened at 50 μM concentrations initially, and then, dose response curves were measured for the hits (Table 1 and Figure 3). […]
Cells were seeded at a density of 2 × 10^3 cells/well in complete media in 96-well plates and incubated for 24 h to allow cells to adhere. […] Cells were suspended and live cells counted using flow cytometry (CytoFLEX LX). Cell survival was normalized from cell count (CC) readings relative to optimal neurotrophin (NT = 100%) and DMSO (0%) utilizing GraphPad Prism 10.2, followed by statistical analysis via one-way ANOVA and Dunnett’s t test compared to the DMSO control. Dose response versions of this assay were conducted following the same procedure, but the data was analyzed in GraphPad Prism 10.2 using the nonlinear fit: {agonist} vs response – variable slope (four parameters) function.

[4] = tested on: p75; settings: cited from earlier work
[5] = tested on: TrkC; settings: cited from earlier work
[6] = tested on: primary adult cortical neurons; experiment: Primary adult cortical neuron assay (neurite outgrowth and survival); assay type: cell-based, mouse; settings: data not shown
Text: We next decided to test the effects of 5c(ii) on primary mouse adult cortical neurons. These neurons naturally express TrkA[84] and therefore provide a more clinically relevant substrate to test compound leads in than analogous Trk-expressing transfectants. In addition, using neurons extracted from adult mice provide increased relevance to neurodegenerative and other nervous-system related diseases and injury, since most of these primarily occur in adult populations.[85],[86] To determine any potential for preclinical applications, 5c(ii) (5 μM) was incubated with primary cortical neurons from 6-week-old male mice at the time of plating, and neuronal survival and neurite outgrowth were quantified.
Figure 7 5c(ii) promotes neuroprotection. Primary adult cortical neurons were extracted from 6-week-old male mice and plated on 384-well PDL-coated plastic bottom plates at 10,000 cells/well. 5c(ii) at 5 μM concentration was added at the time of plating. 48 h after plating, the cells were fixed to conduct immunocytochemistry. Graph represents the mean ± SEM of (a) total neurite outgrowth per cell and (b) number of valid neurons per well. Representative images of cortical neurons treated with (c) vehicle and (d) 5 μM 5c(ii). Student’s t test. N = 3–5. *p < 0.05.
Cortical neuron assay was conducted as previously described.[85] Briefly, wild-type 6-week-old C57Bl/6 male mice were euthanized using CO2, and the brains were removed. The cortex was isolated and transferred to a MACS C-tube and then dissociated using the Miltenyi gentleMACS octo-dissociator on a preset protocol designed for adult rodent brains. […] Images were quantified using the Neurite Outgrowth Analysis Module in MetaXpress 6 software (Molecular Devices). For quantification, the number of valid neurons is determined by quantifying the number of TUBB3^+/DAPI^+ cells in a well with ≥10 μm of total neurite outgrowth. Total neurite outgrowth is determined by dividing the length of all neurites in a well by the number of valid neurons in that respective well. […]

[7] = molecular target: T1, TrkA (on HeLa-TrkA transfectants) (UniProt P04629 33-796); experiment: cell-based or functional assay
[8] = molecular target: T1, TrkA (on HeLa-TrkA transfectants); experiment: cell-surface fluorescence binding on live cells (plate reader); serial dilution of the intrinsically fluorescent compound in serum-free media on adherent Trk-transfected cells, 2.5 h, washed with DPBS, dissolved in 1% SDS, ex 540/25 nm, em 620/40 nm; fluorescence of the Trk-negative parent cells subtracted; one site - specific binding fit; settings: one partner purified
[9] = molecular target: T2, TrkB (on HEK293-TrkB transfectants) (UniProt Q16620 32-822); experiment: cell-based or functional assay
[10] = molecular target: T3, TrkC (on NIH3T3-TrkC transfectants) (UniProt Q16288 32-839); experiment: cell-surface fluorescence binding on live cells (plate reader); serial dilution of the intrinsically fluorescent compound in serum-free media on adherent Trk-transfected cells, 2.5 h, washed with DPBS, dissolved in 1% SDS, ex 540/25 nm, em 620/40 nm; fluorescence of the Trk-negative parent cells subtracted; one site - specific binding fit; settings: one partner purified
T3 construct: TrkC receptor expressed on transfected NIH-3T3 cells; also called NIH+C; NIH-TrkC; source: NIH-3T3, transfected (NIH3T3-TrkC), on live cells

[11] = molecular target: T2, TrkB (on HEK293-TrkB transfectants); experiment: as above; settings: one partner purified
[12] = molecular target: T3, TrkC (on NIH3T3-TrkC transfectants); experiment: cell-based or functional assay
[13] = molecular target: T3, TrkC (on NIH3T3-TrkC transfectants); experiment: cell-based or functional assay; remark: listed apart in the source
[14] = molecular target: T1, TrkA (on HeLa-TrkA transfectants); experiment: cell-based or functional assay; remark: listed apart in the source

TrkB-expressing cells (HEK+B), sequence (Q16620 32-822): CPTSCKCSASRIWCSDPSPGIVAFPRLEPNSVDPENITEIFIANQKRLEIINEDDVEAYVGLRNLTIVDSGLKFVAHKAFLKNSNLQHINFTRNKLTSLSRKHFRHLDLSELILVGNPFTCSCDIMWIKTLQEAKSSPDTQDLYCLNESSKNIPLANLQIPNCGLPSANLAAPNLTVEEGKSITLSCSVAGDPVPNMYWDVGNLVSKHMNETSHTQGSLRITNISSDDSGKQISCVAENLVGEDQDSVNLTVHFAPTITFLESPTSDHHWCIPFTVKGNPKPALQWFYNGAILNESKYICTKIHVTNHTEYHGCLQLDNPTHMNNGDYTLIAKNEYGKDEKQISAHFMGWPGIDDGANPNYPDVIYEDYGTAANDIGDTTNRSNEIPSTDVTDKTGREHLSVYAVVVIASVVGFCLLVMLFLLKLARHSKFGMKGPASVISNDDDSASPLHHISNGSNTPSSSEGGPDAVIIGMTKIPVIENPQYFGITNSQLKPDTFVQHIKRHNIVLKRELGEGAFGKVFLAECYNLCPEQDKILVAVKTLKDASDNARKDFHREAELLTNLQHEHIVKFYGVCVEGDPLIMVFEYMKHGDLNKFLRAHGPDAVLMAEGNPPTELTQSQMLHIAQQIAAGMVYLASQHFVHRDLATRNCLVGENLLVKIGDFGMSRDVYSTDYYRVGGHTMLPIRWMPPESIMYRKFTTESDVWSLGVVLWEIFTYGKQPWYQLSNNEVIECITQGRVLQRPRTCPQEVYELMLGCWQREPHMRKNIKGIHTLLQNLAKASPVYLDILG
T2 sequence (Q16620 32-822): as above
T1 sequence (P04629 33-796): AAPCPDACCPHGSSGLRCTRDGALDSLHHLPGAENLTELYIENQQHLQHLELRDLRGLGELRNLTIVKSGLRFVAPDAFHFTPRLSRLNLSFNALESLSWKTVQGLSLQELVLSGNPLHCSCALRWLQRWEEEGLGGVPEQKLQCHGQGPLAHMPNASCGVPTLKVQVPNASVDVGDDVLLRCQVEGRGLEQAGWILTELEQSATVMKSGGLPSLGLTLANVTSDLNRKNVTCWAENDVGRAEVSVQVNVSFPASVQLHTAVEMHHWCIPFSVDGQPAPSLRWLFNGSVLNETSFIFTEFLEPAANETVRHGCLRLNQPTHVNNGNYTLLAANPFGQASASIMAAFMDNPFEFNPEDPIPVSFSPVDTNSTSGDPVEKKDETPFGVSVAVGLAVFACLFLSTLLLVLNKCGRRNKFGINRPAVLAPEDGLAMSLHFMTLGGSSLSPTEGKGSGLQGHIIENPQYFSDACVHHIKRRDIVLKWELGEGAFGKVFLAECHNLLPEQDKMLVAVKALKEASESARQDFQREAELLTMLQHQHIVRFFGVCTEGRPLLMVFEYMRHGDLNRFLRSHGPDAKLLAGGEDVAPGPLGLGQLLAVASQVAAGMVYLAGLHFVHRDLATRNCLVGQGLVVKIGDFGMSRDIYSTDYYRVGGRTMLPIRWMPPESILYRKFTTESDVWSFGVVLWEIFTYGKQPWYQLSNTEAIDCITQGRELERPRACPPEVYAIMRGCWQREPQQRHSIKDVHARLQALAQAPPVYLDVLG
T3 sequence (Q16288 32-839): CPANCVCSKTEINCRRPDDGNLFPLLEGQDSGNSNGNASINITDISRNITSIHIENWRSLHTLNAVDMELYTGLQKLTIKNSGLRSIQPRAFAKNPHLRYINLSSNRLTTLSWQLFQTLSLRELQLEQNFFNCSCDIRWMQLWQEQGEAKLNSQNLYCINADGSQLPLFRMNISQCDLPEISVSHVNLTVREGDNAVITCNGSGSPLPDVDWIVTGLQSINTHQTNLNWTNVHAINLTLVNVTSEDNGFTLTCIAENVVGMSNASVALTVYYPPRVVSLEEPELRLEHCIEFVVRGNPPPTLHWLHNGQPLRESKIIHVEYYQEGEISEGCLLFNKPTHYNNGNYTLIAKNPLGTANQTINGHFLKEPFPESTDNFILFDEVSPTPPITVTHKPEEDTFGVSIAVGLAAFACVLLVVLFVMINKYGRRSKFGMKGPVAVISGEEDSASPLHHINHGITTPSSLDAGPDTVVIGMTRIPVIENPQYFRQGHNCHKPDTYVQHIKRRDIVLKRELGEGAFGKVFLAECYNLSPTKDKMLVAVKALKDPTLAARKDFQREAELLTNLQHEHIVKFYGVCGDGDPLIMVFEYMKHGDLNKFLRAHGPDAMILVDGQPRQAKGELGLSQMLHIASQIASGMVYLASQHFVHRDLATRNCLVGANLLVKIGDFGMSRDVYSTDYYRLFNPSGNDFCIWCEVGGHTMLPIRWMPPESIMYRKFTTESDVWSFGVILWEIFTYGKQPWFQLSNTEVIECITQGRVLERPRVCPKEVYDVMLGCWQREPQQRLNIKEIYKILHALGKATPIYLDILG
TrkC-expressing cells (NIH+C), sequence (Q16288 32-839): as above
TrkA-expressing cells (HeLa+A), sequence (P04629 33-796): as the sequence (P04629 33-796) above

COc1ccc(C2=C3C=C(S(=O)(=O)O)C4=[N+]3[B-](F)(F)n3c2cc(S(=O)(=O)O)c3SC[C@H](NC(C)=O)C(=O)N[C@@H](CC(=O)O)C(=O)N[C@@H](CCC(=O)O)C(=O)N[C@@H](CCCCN)C(=O)N[C@@H](CCC(N)=O)C(=O)N[C@H](C(N)=O)CS4)cc1 [5a(iii)m] (Ac-CDEKQC-NH2; linker 1-6 via X1; N-terminus and C-terminus assumed)
result (Trk activity assigned) [1]: TrkA modulator

COc1ccc(C2=C3C=C(S(=O)(=O)O)C4=[N+]3[B-](F)(F)n3c2cc(S(=O)(=O)O)c3SC[C@H](NC(C)=O)C(=O)N[C@@H](CC(=O)O)C(=O)N[C@@H](CCSC)C(=O)N[C@@H](CO)C(=O)NCC(=O)N[C@H](C(N)=O)CS4)cc1 [5b(i)] (Ac-CDMSGC-NH2; linker 1-6 via X1; N-terminus and C-terminus assumed)
result (Trk activity assigned) [2]: TrkB agonist

COc1ccc(C2=C3C=C(S(=O)(=O)O)C4=[N+]3[B-](F)(F)n3c2cc(S(=O)(=O)O)c3SC[C@H](NC(C)=O)C(=O)N[C@@H](C(C)C)C(=O)N[C@@H](CO)C(=O)N[C@@H](CCCCN)C(=O)NCC(=O)N[C@H](C(N)=O)CS4)cc1 [5b(ii)] (Ac-CVSKGC-NH2; linker 1-6 via X1; N-terminus and C-terminus assumed)
result (Trk activity assigned) [2]: TrkB agonist

CC[C@H](C)[C@@H]1NC(=O)[C@H](CC(=O)O)NC(=O)[C@@H](NC(C)=O)CSc2c(S(=O)(=O)O)cc3n2[B-](F)(F)[N+]2=C(SC[C@@H](C(N)=O)NC(=O)CNC(=O)[C@H](CCCNC(=N)N)NC1=O)C(S(=O)(=O)O)=CC2=C3c1ccc(OC)cc1 [5c(i)] (Ac-CDIRGC-NH2; linker 1-6 via X1; N-terminus and C-terminus assumed)
result (Trk activity assigned) [3]: TrkB/C agonist
result (Trk activity assigned) [2]: TrkB/C agonist

COc1ccc(C2=C3C=C(S(=O)(=O)O)C4=[N+]3[B-](F)(F)n3c2cc(S(=O)(=O)O)c3SC[C@H](NC(C)=O)C(=O)N[C@@H](CCC(=O)O)C(=O)N[C@@H](CC(N)=O)C(=O)N[C@@H](CC(N)=O)C(=O)N[C@@H](CCCCN)C(=O)N[C@H](C(N)=O)CS4)cc1 [5c(iii)] (Ac-CENNKC-NH2; linker 1-6 via X1; N-terminus and C-terminus assumed)
result (Trk activity assigned) [3]: TrkC agonist

NCCCC[C@@H]1NC(=O)[C@H](CCC(=O)O)NC(=O)c2cc([N+](=O)[O-])ccc2OCC[C@@H](C(=O)NCC(=O)O)NC1=O [D3]
binding to p75 [4]: does not bind
binding to TrkC [5]: does not bind
effect in primary adult cortical neuron assay [6]: no measurable effect

CDEKQC (linker 1-6 via sulfonated dichloro‑BODIPY) [cyclo-organopeptide 5a(iii)m]
EC50 of survival of HeLa-TrkA cells in serum-free media, with suboptimal neurotrophin (0.2 nM NGF) [7]: 500 nM
EC50 of survival of HeLa-TrkA cells in serum-free media, without NT [7]: 2400 nM
Kd [8]: 120 ± 3 nM

B1: cyclo-organopeptide 5c(i) (peptide)
peptide: CDIRGC
modifications: linker 1-6 via sulfonated dichloro‑BODIPY dye
notes: flanking Cys of the CX1X2X3X4C-peptide; also called NT-3 loop (i) mimic; source: synthetic peptide (Fmoc SPPS), cyclised onto BODIPY, preparative HPLC
EC50 of survival of HEK293-TrkB cells in serum-free media, with suboptimal neurotrophin (0.6 nM BDNF) [9]: 2200 nM
EC50 of survival of HEK293-TrkB cells in serum-free media, without NT [9]: 100 nM
Kd [10]: 97 ± 4 nM
Kd [11]: 43 ± 2 nM

CENNKC (linker 1-6 via sulfonated dichloro‑BODIPY dye) [cyclo-organopeptide 5c(iii)]
EC50 of survival of NIH3T3-TrkC cells in serum-free media, with suboptimal neurotrophin (0.2 nM NT-3) [12]: 900 nM
EC50 of survival of NIH3T3-TrkC cells in serum-free media, without NT [12]: 800 nM
Kd [10]: 91 ± 4 nM

B2: cyclo-organopeptide 5c(ii) (peptide)
peptide: CTQNSC
modifications: linker 1-6 via sulfonated dichloro‑BODIPY dye
notes: flanking Cys of the CX1X2X3X4C-peptide; also called NT-3 loop (ii) mimic; source: synthetic peptide (Fmoc SPPS), cyclised onto BODIPY, preparative HPLC
EC50 of survival of HeLa-TrkA cells in serum-free media, with suboptimal neurotrophin (0.2 nM NGF) [7]: 300 nM
EC50 of survival of HeLa-TrkA cells in serum-free media, without NT [7]: 4500 nM
Kd [8]: 91 ± 2 nM
IC50 of the decrease of pAKT signalling (ELFI) in NIH+C cells when competed with 10 ng/mL NT; pair blocked: NT-3 and TrkC [13]: 7 μM
IC50 of the decrease of pMAPK signalling (ELFI) in NIH+C cells when competed with 10 ng/mL NT; pair blocked: NT-3 and TrkC [13]: 35 μM
IC50 of the decrease of pAKT signalling (ELFI) in PC12 cells (rat, endogenous TrkA) when competed with 10 ng/mL NT; pair blocked: NGF and TrkA [14]: 7 μM
IC50 of the decrease of pMAPK signalling (ELFI) in PC12 cells (rat, endogenous TrkA) when competed with 10 ng/mL NT; pair blocked: NGF and TrkA [14]: 7 μM

CVSKGC (linker 1-6 via sulfonated dichloro‑BODIPY dye) [cyclo-organopeptide 5b(ii)]
EC50 of survival of HEK293-TrkB cells in serum-free media, with suboptimal neurotrophin (0.6 nM BDNF) [9]: 2800 nM
EC50 of survival of HEK293-TrkB cells in serum-free media, without NT [9]: 900 nM
Kd [11]: 115 ± 66 nM
